These results are taken from PMC6003574, “Selection of a novel CD19 aptamer for targeted delivery of doxorubicin to lymphoma cells”.

The target in this series is CD19 extracellular domain (Homo sapiens, UniProt P15391 20-291). Kind of series: flow cytometry on protein-coated beads; PBS, 37 C; PBS, 37 C, 30 min, three PBS washes; bead flow cytometry, random ssDNA pool as background; pH not stated. The note with it: protein: commercial; label: FITC (flow cytometry); Cy3 (confocal); FITC at 5' end in selection primer. (In general: A flow cytometer gives signals particle by particle.)
Sequence of CD19 extracellular domain (P15391 20-291): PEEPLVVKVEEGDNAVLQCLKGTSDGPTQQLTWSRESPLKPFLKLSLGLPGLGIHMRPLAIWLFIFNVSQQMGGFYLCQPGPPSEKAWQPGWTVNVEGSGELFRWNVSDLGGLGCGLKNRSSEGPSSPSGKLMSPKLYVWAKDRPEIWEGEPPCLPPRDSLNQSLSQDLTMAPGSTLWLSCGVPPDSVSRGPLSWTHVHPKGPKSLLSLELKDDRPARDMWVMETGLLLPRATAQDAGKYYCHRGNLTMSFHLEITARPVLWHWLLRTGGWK

B1: LC1 (ssDNA)
DNA: TGCGTGTGTAGTGTGTCTGTTCTCCTTTTTTTGGTTGCTGCTCTTAGGGATTTGGGCGG
Usually Kd stands for the equilibrium constant for the complex coming apart. High values mean weaker binding, low ones tighter binding. Consider B1, for which the affinity, expressed as Kd, was 85.4 nM.
